Test results published in the nanobody polyreactivity screen of Harvey et al. (2022).

Assay: yeast display, Sf9 membrane polyspecificity reagent, FACS + sequencing; frameworks hold sequencing errors
Summary of the method: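 Synthetic nanobody libraries on Saccharomyces cerevisiae BJ5465 were galactose-induced for 36–48 hours, stained 1 hour at 4 °C with 10% biotinylated, detergent-solubilized Sf9 membrane reagent and enriched on streptavidin microbeads. FACS then separated cells into low and high (top ~1%) gates by anti-HA (expression) and streptavidin (reagent binding) fluorescence. Genes were colony-PCR amplified, MiSeq 2 × 250 sequenced and CDR-length filtered. A clone's polyreactivity label is that of its gate of origin.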

Sequence | polyreactivity (PSR sort gate)
QVQLVDSGGGLVQAGGSLRLSCAASGSTFVQYAMGWYRPAPGKERELVAAISTGGSTNYADSVKGRFTISRDNAKNTVYLEMNSLKPEDTAVYYCNVAVWTIVQSLYPYDYWGQGTQVTVSS | low polyreactivity
QVQLVESGGGLVQAGGSLRLSCAASGSTFAGNAMGWYRQAPGKERELVAAITWSGGNTNYADSVKGRFTISRDNAKNTVYLQMNSLKPEDTAVYYCASDFSGSLAYDYWGQGTQVTVSS | low polyreactivity
QVQLVESGGGLVQAGGSLRLSCAASGSIFYVNAMGWYRQAPGKDRELVAAISVRGGRTYYADSVKGRFTISRDNAKNTVYLQLNSLKPEDTAVYYCATRISTVGRYDYWGQGTQVTVSS | high polyreactivity
QVQLVESGGGLVQAGGSLRLSCAASGLIFVWYAMGWYRQAPGKERELVAAISWRGGTTYYADSVKGRFTISRDNAKNTVYLQMNSLKPEDTAVYYCNAVGSQVDYLRYVWYDMDYWGQGTQVTVSS | low polyreactivity
QVQLVESGGGLVQAGGSLRLSCAASGSIFGSYVMVWYRQAPGKERELVAAISKSGGRTYYADSVKGRFTISRDNAKNTVYLQMKSLKPEDTAVYYCAVLPRVKDGTGGDYWGQGTQVTVSS | high polyreactivity
QVQLVESGGGLVQAGGSLRLSCAASGITFSGYDMGWYRQAPWKERELVASSTYYADSVKGRFTISRDNAKNTVYLQMNSLKPEDTAVYYCAADSPGDFGGYGFDYWGQGTQVTVSS | high polyreactivity
QVQLVESGGGLVQAGGSLRLSCAASGSTFHLYAMGWYRQAPGKEREFVAAIRGRGGNTYADSVKGRFTISRDNAKNTVYLQMHSLKPEDTAVYYCAAPLLRDLRSPYSYNYWGQGTQVTVSS | low polyreactivity
QVQLVESWGGLVQAGGSLRLSCAASGSTFTTNAMGWYRQAPGKERELVATMSGGGSTYYADSVKGSFTISRDNAKHTVYLQTNSLKPEDTAVYYCAKPTYRFYWGDFDYWGQGTQVTLSS | low polyreactivity
QVQLVESRGGLVQAGGSLRLSCAASGLTFLYNAMGWYRQAPGKERELVAAISQSAGSTYYADSVKGRFTISRDNAKNTVYLQMNSLKPEDTAVYYCAAEWDTPDLVIYDYWGQGTQVTVSS | low polyreactivity
QVQLVESGGGLVLAGGSLRLSCAASGFIFSPYVRGWYRQAPGKDRELVAAISSIGGSTYYADSVKGRFTISRDNAKNTVFLQMNSLKPEDTAVYYCADSVYYYASRYDYWGQVTQVTVSS | low polyreactivity
QVQLVESGGGVVQAGGSLRLSCAASGRIFRINGMGWYRQAPGKEREFVAAITSGGGTYYADSVKGRFTITRDNAKNTVYLQMNSLKPEDTAVYYCAAPSYRTRYYYWGQGTQVTVSS | high polyreactivity
QVQLVESGGLLVKAGGSLRLSCAASGSIFYLYVMGWYRQAPGIERELVAANTWSGGSTYYADSVKGRFTISRDNAKNTVYLQMNILIPEDTAVYYCAARGYVPYVKYDYWGQGTQVTVSS | high polyreactivity
QVQLQESGGGQVQAVGSLRLSCAPSGSNFVSDTMCWYRHAPGKDRELVASIGRGSTTNHADSVKGRFTISRDNAKNIVYLLMNSLKPEDTAVYYCAALESYGKYHGYWGQGTQVTVSS | low polyreactivity
QVQLVESGGGLVQAGGSLRLTCAASGSTSGQNAMGRYRQAPGNERELVAAISSSAGSTYADSVKGRFTISRDNAKNTVYLQMNSLKPEDTAVYYCNVPYYYTRGSYGYWGQGTQVTVSS | low polyreactivity
QVQLVESGGGLVQAGGSLRLSCAASGSIFLTYAMGWYRKAPGKERELVAAISGGGNTYYADSVKGRFTISRDNAKNTVYLQKNSLKPEDTAVYYCNAVPHIYAEGTAYNYWGQGTQVTVSS | low polyreactivity
QDQLVESGGGLVQAGGSLRLSCAASGFIFRFNARGWYRQAPGKEREVVAVIRWSSGSTYYADSVKGRFTISRDNAKNTVYLQMNSLKPEDTAVYYCAAVDDDYSIVWYYYWGQGTQVTVSS | low polyreactivity
QVQLVESGGGLVQAGGSLRLTCAASGSTFGWYTKGWYRQAPGKERELVAAISSGGSTYYADSVKGRFTISRDNAKNTVYLQMNSLKPEDTAVYYCNAKVPSSYSYYSYYEYDYWGQGTQVTVSS | low polyreactivity
QVQLVESGGGLVQAGGSLRLSCAASGFIFFRYAMGWYRQAPGKERELVAAISRTGGRTYYADSVKGRFTISRDNAKNTVYLQMNSLKPEDTAVYYCAARRHSRVKYRDYWGQGTQVTVSS | high polyreactivity
QDQLVESWVGLVQAGGSLRLSCAASGTISSYAMGWSRQAPGKERELVASIRYRGGSTYYADSVKGRFTISRDNEKNTVYLQINSLKPEDTAVYYCNAVRVPYVRGAKFEYWGQGTQVTVSS | low polyreactivity
QVQLQDTGGGLVQAGGSPRLSCAASDNIFPDSVMCWYRQAPGKERELVATIGFGATTNYADSVKGRFTISRDNAKITVYLQMNSLKPEDSAVYYCAADPLNYEYFCYWGQGTQVTVRS | low polyreactivity
QVQLVESGGGLVQAGGSLRLSCAASGRTFLRYAMGWYRQAPGKERELVAAISWSGGRTYYADSVKGRFTISRDNAKNTVYLQMNSLKPEDTAVYYCNKVVLYGAHYYYWGQGTQVTVSS | high polyreactivity
QVQLVESGGGLVQAGGSLRLSCAASGFTFRTYAMGWYRQAPGKERELVSAITGSGGRTYYADSVKGRFTISRDYAKNTVYLQMNSLKPEDTAVYYCAADYVVPWAFWTFRFDYWGQGTQVTVSS | low polyreactivity
